The source of these data is patent US20120045395, “MicroRNAs In Idiopathic Pulmonary Fibrosis” (UNIVERSITY OF PITTSBURGH - OF THE COMMONWEALTH SYSTEM OF …, published 2012).

This data set addresses SMAD3 (UniProt P84022 P84022:1-425). Put plainly: EMSA; 5 mM MgCl2, 200 mM NaCl, pH 7.6, poly(dI-dC), room temperature; band diminished by unlabeled competitor; probe described as upstream of the predicted site …. The settings on record: tags: full length, Santa Cruz Biotechnology; label: 5'-Cy5. The procedure:
Electrophoretic Mobility Shift Assay (EMSA): Cultured A549 cells at 60-70% confluence were treated with 2 ng/mL recombinant human TGFβ₁ (R&D Systems) for 60 minutes. Nuclear proteins were isolated using a standard rapid micropreparation technique described at Andrews N. C. and Faller D. V. Nucleic acids research (1991); 19:2499). The supernatant was reserved and snap frozen in liquid nitrogen as the nuclear protein fraction. Nuclear extracts and recombinant full length SMAD3 protein (Santa Cruz Biotechnology, Santa Cruz, Calif.) were incubated with 5′-end Cyanine-5 labeled probe and/or non-labeled competitor oligonucleotide for 20 minutes at room temperature in a binding buffer consisting of 20% glycerol, 5 mM MgCl₂, 2.5 mM EDTA, 25 mM DTT, 200 mM NaCl, 50 mM Tris HCl pH 7.6, and 0.25 mg/mL poly(dI-dC). The complementary oligonucleotides (5′-[…]-3′ (SEQ ID NO: 3), 5′-[…]-3′ (SEQ ID NO: 4)) were synthesized by Integrated DNA Technologies (Coralville, Iowa), and consisted of a sequence upstream of the predicted SMAD3/let7d binding site (GGCTGAGTA (SEQ ID NO:5)). […] The protein/DNA complexes were run on a 6% native polyacrylamide gel and visualized on a Typhoon imaging and documentation system using Cyanine-5 dye excitation and fluorescence settings.

SMAD3, sequence (P84022 whole entry, one chain of several): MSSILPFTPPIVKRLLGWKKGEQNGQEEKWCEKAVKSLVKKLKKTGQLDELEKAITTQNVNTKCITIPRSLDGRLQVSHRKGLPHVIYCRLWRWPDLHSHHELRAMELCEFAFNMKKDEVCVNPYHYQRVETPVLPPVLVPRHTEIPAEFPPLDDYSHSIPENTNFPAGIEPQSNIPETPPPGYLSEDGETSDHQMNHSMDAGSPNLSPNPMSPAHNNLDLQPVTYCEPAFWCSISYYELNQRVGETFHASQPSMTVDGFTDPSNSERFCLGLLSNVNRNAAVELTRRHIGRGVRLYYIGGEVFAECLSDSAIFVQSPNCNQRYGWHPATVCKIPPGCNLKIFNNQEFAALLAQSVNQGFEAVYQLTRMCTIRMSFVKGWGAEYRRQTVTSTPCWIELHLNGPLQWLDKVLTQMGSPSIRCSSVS

B1: let-7d promoter EMSA probe (dsDNA)
DNA 1: GATAATTAAATGTTAAAAGTCAGC
DNA 2: GCTGACTTTTAACATTTAATTATC
On to B1, for which the binding result is on record as “binds”.
